Measurements taken from paper PMC12016152.

B1: ASIC4: ASIC4N376A (protein)
parent chain: MPIEIVCKIKFAEEDAKPKEKEAGDEQSLLGAAQGPAAPRDLATFASTSTLHGLGRACGPGPHGLRRTLWALALLTSLAAFLYQAASLARGYLTRPHLVAMDPAAPAPVAGFPAVTLCNINRFRHSALSDADIFHLANLTGLPPKDRDGHRAAGLRYPEPDMVDILNRTGHQLADMLKSCNFSGHHCSASNFSVVYTRYGKCYTFNADPQSSLPSRAGGMGSGLEIMLDIQQEEYLPIWRETNETSFEAGIRVQIHSQEEPPYIHQLGFGVSPGFQTFVSCQEQRLTYLPQPWGNCRAESELREPELQGYSAYSVSACRLRCEKEAVLQRCHCRMVHMPGNETICPPNIYIECADHTLDSLGGGSEGPCFCPTPCNLTRYGKEISMVKIPNRGSARYLARKYNRNETYIRENFLVLDVFFEALTSEAMEQQAAYGLSALLGDLGGQMGLFIGASILTLLEILDYIYEVSWDRLKRVWRRPKTPLRTSTGGISTLGLQELKEQSPCPSRGRAEGGGASSLLPNHHHPHGPPGSLFEDFAC
B2: ASIC4: ASIC4N191A (protein)
parent chain: B1 parent chain
B3: ASIC4: ASIC4N191A, N243A, N341A, N376A (protein)
parent chain: B1 parent chain
B4: ASIC4: ASIC4N341A (protein)
parent chain: B1 parent chain
B5: ASIC4: ASIC4N243A (protein)
parent chain: B1 parent chain

Experiment: whole-cell patch clamp, pH 5.0 peak current density, CHO
Conditions: glycan lost; control: ASIC1a + ASIC4WT

| Protein | other: channel current of co-expressed ASIC1a |
| --- | --- |
| B1 | no change |
| B2 | increases |
| B3 | increases |
| B4 | increases |
| B5 | no change |

Experiment: amygdala cell surface fraction, western blot, Asic4-/- mice
Conditions: glycan lost; control: AAV-DIO-ASIC4WT rescue

| Protein | other: surface expression of ASIC1a in vivo |
| --- | --- |
| B2 | increases |
| B5 | no change |

Experiment: surface biotinylation, western blot, CHO (n = 2)
Conditions: glycan lost; control: ASIC1a + ASIC4WT

| Protein | other: surface expression of co-expressed ASIC1a |
| --- | --- |
| B1 | no change |
| B2 | increases |
| B3 | increases |
| B4 | increases |
| B5 | no change |
